± gives the uncertainty stated by the source.
Experiment: protein stability index of a GFP-peptide fusion (yeast GPS) (PSI 1-4); higher = more stable; sorted into four equal gates, so the index is relative within each strain
Procedure, shortened: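 Each library plasmid carries Cherry plus GFP with a tiled 17-residue yeast protein peptide fused downstream, and the pooled library was carried in yeast. Mid-log cultures in leucine-free medium were sorted into four equal gates by GFP/Cherry ratio. Reads from Illumina sequencing of PCR-amplified plasmids from each gate were assigned to strains by barcodes. Per peptide, the protein stability index was computed as the summed products of gate read frequency and gate number.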

Work on DPDTKKVKESPANDQAS [YIL149C/MLP2] yielded a protein stability index (doa10∆) of 3.04 ± 0.084, a protein stability index (pdr5∆) of 3.21 ± 0.078 and a protein stability index (san1∆) of 3.06 ± 0.049. For the same sequence, the protein stability index (ubr1∆) was 3.12 ± 0.093.

LESVGIEIEDEKVSSVL [RPP2A] gave a protein stability index (doa10∆) of 3.04 ± 0.075, a protein stability index (pdr5∆) of 2.67 ± 0.12 and a protein stability index (san1∆) of 2.77 ± 0.12. For the same sequence, the protein stability index (ubr1∆) was 2.78 ± 0.094.

Sequence QFCAFDSSSNTYRSRAQ [SIN4] has a protein stability index (doa10∆) of 2.82 ± 0.075, a protein stability index (pdr5∆) of 2.37 ± 0.08 and a protein stability index (san1∆) of 2.81 ± 0.05. The protein stability index (ubr1∆) was 2.39 ± 0.057.

TSSAFFYQQVHKKDRLQ [SIR4] gave a protein stability index (doa10∆) of 2.43 ± 0.048, a protein stability index (pdr5∆) of 2 ± 0.046 and a protein stability index (san1∆) of 2.26 ± 0.053. For the same sequence, the protein stability index (ubr1∆) was 2.44 ± 0.032.

APMYILDEVDAALDLSH [SMC2] gave a protein stability index (doa10∆) of 2.94 ± 0.29, a protein stability index (pdr5∆) of 2.85 ± 0.21 and a protein stability index (san1∆) of 2.92 ± 0.23. For the same sequence, the protein stability index (ubr1∆) was 3 ± 0.073.

In the case of SSGVLSSNIAGTNPLSS [SSN2], the protein stability index (doa10∆) is reported as 3.41 ± 0.13, the protein stability index (pdr5∆) is reported as 2.9 ± 0.12 and the protein stability index (san1∆) is reported as 2.83 ± 0.19. The protein stability index (ubr1∆) was 3.31 ± 0.088.

KDWELEARFWHLVELLL [YDL116W/NUP84] gave a protein stability index (doa10∆) of 2.26 ± 0.1, a protein stability index (pdr5∆) of 2.15 ± 0.086 and a protein stability index (san1∆) of 1.92 ± 0.15. The protein stability index (ubr1∆) was 2.28 ± 0.062.

For PGLEFLDDTTIPVGLMA [MCD1], the protein stability index (doa10∆) was 1.99 ± 0.057, the protein stability index (pdr5∆) was 2.71 ± 0.059 and the protein stability index (san1∆) was 3.03 ± 0.041. The protein stability index (ubr1∆) was 2.52 ± 0.055.

Work on RSNQYQRGKMHGLKQLR [NUT2] yielded a protein stability index (doa10∆) of 2.67 ± 0.1, a protein stability index (pdr5∆) of 2.91 ± 0.078 and a protein stability index (san1∆) of 1.48 ± 0.28. For the same sequence, the protein stability index (ubr1∆) was 1.74 ± 0.076.

In the case of MFGAKPAGTSLFGNNAG [YGL172W/NUP49], the protein stability index (doa10∆) is reported as 3.16 ± 0.076, the protein stability index (pdr5∆) is reported as 3.08 ± 0.067 and the protein stability index (san1∆) is reported as 3.01 ± 0.072. It also gave a protein stability index (ubr1∆) of 3.06 ± 0.053.

TDAYLDQYLWYEADQRK [PRP8] showed a protein stability index (doa10∆) of 3.18 ± 0.12, a protein stability index (pdr5∆) of 3.21 ± 0.17 and a protein stability index (san1∆) of 3.02 ± 0.18. For the same sequence, the protein stability index (ubr1∆) was 3.12 ± 0.081.

Sequence DMGMQQELCYPDENHDN [BRN1] has a protein stability index (doa10∆) of 3.22 ± 0.073, a protein stability index (pdr5∆) of 3.28 ± 0.06 and a protein stability index (san1∆) of 2.99 ± 0.059. For the same sequence, the protein stability index (ubr1∆) was 3.33 ± 0.055.

Work on LKESIKNSTSSMTAVPK [RPN1] yielded a protein stability index (doa10∆) of 3.02 ± 0.096, a protein stability index (pdr5∆) of 3.31 ± 0.1 and a protein stability index (san1∆) of 3.14 ± 0.1. The protein stability index (ubr1∆) was 3.2 ± 0.084.

In the case of VNAIKNEVKEWAVTLDT [DSN1], the protein stability index (doa10∆) is reported as 3.11 ± 0.13, the protein stability index (pdr5∆) is reported as 2.82 ± 0.13 and the protein stability index (san1∆) is reported as 3.1 ± 0.074. The protein stability index (ubr1∆) was 3.33 ± 0.12.

With HGNLASCHGHFGHLKLA [RPO31] the protein stability index (doa10∆) was 1.48 ± 0.06, the protein stability index (pdr5∆) was 1.45 ± 0.061 and the protein stability index (san1∆) was 1.14 ± 0.1. It also gave a protein stability index (ubr1∆) of 1.2 ± 0.033.

In the case of PRLLGPQLSKAGKFPTP [RPL1A], the protein stability index (doa10∆) is reported as 2.86 ± 0.066, the protein stability index (pdr5∆) is reported as 2.8 ± 0.057 and the protein stability index (san1∆) is reported as 2.74 ± 0.052. For the same sequence, the protein stability index (ubr1∆) was 2.64 ± 0.035.

For KIENSVQIGAEIILDFL [CSI1], the protein stability index (doa10∆) was 2.73 ± 0.24, the protein stability index (pdr5∆) was 2.83 ± 0.16 and the protein stability index (san1∆) was 2.38 ± 0.12. The protein stability index (ubr1∆) was 2.61 ± 0.11.

QSLELMIYDDAHEISQG [BRR2] showed a protein stability index (doa10∆) of 2.73 ± 0.04, a protein stability index (pdr5∆) of 2.92 ± 0.037 and a protein stability index (san1∆) of 2.86 ± 0.037. The protein stability index (ubr1∆) was 3.02 ± 0.035.

In the case of QGATNEGYQNDINTIKL [SRP72], the protein stability index (doa10∆) is reported as 3.54 ± 0.27, the protein stability index (pdr5∆) is reported as 3.15 ± 0.17 and the protein stability index (san1∆) is reported as 2.46 ± 0.23.

Work on KEEFSSDESIERLMTWK [RRI2] yielded a protein stability index (doa10∆) of 2.49 ± 0.08, a protein stability index (pdr5∆) of 2.77 ± 0.076 and a protein stability index (san1∆) of 2.55 ± 0.11. The protein stability index (ubr1∆) was 2.43 ± 0.17.

With PAPSKPVIDYELKEITS [BRR2] the protein stability index (doa10∆) was 3.15 ± 0.079, the protein stability index (pdr5∆) was 3.2 ± 0.081 and the protein stability index (san1∆) was 2.97 ± 0.068. It also gave a protein stability index (ubr1∆) of 3.1 ± 0.07.

In the case of SSTTGMSYVVRILSTLD [RPT3], the protein stability index (doa10∆) is reported as 2.31 ± 0.082, the protein stability index (pdr5∆) is reported as 2.42 ± 0.084 and the protein stability index (san1∆) is reported as 2.49 ± 0.053. It also gave a protein stability index (ubr1∆) of 2.91 ± 0.066.

With YPVVEVERGRVGACTDE [RRP43] the protein stability index (doa10∆) was 3.24 ± 0.1, the protein stability index (pdr5∆) was 2.8 ± 0.25 and the protein stability index (san1∆) was 3.16 ± 0.23. It also gave a protein stability index (ubr1∆) of 3.03 ± 0.091.

Work on NNVKQMVMAGSKGSFIN [RPO21] yielded a protein stability index (doa10∆) of 1.57 ± 0.091, a protein stability index (pdr5∆) of 1.78 ± 0.095 and a protein stability index (ubr1∆) of 1.94 ± 0.068.

With IVVLVPKFGVEGLIRLD [DIS3] the protein stability index (doa10∆) was 2.16 ± 0.07, the protein stability index (pdr5∆) was 2.41 ± 0.063 and the protein stability index (san1∆) was 2.31 ± 0.085. It also gave a protein stability index (ubr1∆) of 2 ± 0.054.

— the supplement of paper PMC9732359
